According to patent US20260250352A1:
Like-named read-outs stand apart in the source and are kept apart here. One block for each binder: values may come before it.

Tests used:
Assay in all cases: cell-based or functional assay
[1] = biological target: APRIL + BAFF in combination (human)
[2] = biological target: recombinant human APRIL (human) (UniProt O75888)
[3] = biological target: APRIL + BAFF in combination (human); remark: listed apart in the source
[4] = biological target: single chain BAFF-APRIL-APRIL heterotrimer (BAA) (human) (UniProt Q9Y275)
Sequence of single chain BAFF-APRIL-APRIL heterotrimer (BAA) (human) (Q9Y275 other isoform, or with tags, fused parts or gaps limits assumed): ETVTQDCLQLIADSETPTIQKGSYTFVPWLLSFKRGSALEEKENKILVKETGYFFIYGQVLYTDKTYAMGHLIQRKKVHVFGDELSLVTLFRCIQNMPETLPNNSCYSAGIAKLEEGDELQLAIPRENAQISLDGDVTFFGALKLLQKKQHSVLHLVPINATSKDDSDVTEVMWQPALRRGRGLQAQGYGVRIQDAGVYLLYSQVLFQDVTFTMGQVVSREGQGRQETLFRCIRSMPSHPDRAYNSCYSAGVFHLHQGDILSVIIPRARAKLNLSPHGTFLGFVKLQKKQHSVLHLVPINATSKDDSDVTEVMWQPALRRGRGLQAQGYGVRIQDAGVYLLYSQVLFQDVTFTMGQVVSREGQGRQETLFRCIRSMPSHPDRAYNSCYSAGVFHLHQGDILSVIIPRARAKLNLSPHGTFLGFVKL

- IC50, Jurkat/NF-kB/TACI reporter [1]: 1.39 nM
- IC50, TACI/Jurkat/NF-kB reporter [1]: 3.1 nM
- fold better IC50 than anti-APRIL mAb plus belimumab [1]: 3.5 fold
- fold lower IC50 than telitacicept [1]: > 50 fold
B1: 26 TACI CRD2-Fc (Fc fusion)
chain: SLSCRKEQGEYYDHLLRDCISCASICGQHPKQCADFCENKLRSGSGGGGSEPKSSDKTHTCPPCPAPEAEGAPSVFLFPPKPKDTLMISRTPEVTCVVVDVSHEDPEVKFNWYVDGVEVHNAKTKPREEQYNSTYRVVSVLTVLHQDWLNGKEYKCKVSNKALPAPIEKTISKAKGQPREPQVYTLPPSRDELTKNQVSLTCLVKGFYPSDIAVEWESNGQPENNYKTTPPVLDSDGSFFLYSKLTVDKSRWQQGNVFSCSVMHEALHNHYTQKSLSLSPG

- IC50, Jurkat/NF-kB/TACI reporter [1]: 16.8 nM
- IC50, TACI/Jurkat/NF-kB reporter [1]: > 200 nM
B2: Telitacicept, O14836 13-118 (Fc fusion, not shown: a dimerising Fc or GST)
chain: SRVDQEERFPQGLWTGVAMRSCPEEQYWDPLLGTCMSCKTICNHQSQRTCAAFCRSLSCRKEQGKFYDHLLRDCISCASICGQHPKQCAYFCENKLRSPVNLPPEL
modifications: here or on the partner: The drug is a disulfide-linked Fc-fusion homodimer. Only one TACI ECD arm is given, and the Fc is left out.

- IC50, Jurkat/NF-kB/TACI reporter [2]: 215000 nM
- IC50 relative to TACI 30-110-Fc [2]: 55.8
- IC50, Jurkat/NF-kB/TACI reporter [3]: > 100 nM
B3: Belimumab (antibody, INN chains, looked up, V domains shown)
VH: QVQLQQSGAEVKKPGSSVRVSCKASGGTFNNNAINWVRQAPGQGLEWMGGIIPMFGTAKYSQNFQGRVAITADESTGTASMELSSLRSEDTAVYYCARSRDLLLFPHHALSPWGRGTMVTVSS
VL: SSELTQDPAVSVALGQTVRVTCQGDSLRSYYASWYQQKPGQAPVLVIYGKNNRPSGIPDRFSGSSSGNTASLTITGAQAEDEADYYCSSRDSSGNHWVFGGGTELTVLG

- IC50, TACI/Jurkat/NF-kB reporter [2]: 5.1 nM
- IC50, TACI/Jurkat/NF-kB reporter [4]: 0.144 nM
B4: Anti-APRIL mAb based on the published VIS649 (sibeprenlimab) sequence (antibody, INN chains, looked up, V domains shown)
VH: QVQLVQSGAEVKKPGASVKVSCKASGYTFTDYTIHWVRQATGQGLEWMGWIYPLRGSINYAQKFQGRVTMTADKSISTVYMELSSLRSEDTAVYFCARHGAYYSNAFDYWGQGTLVTVSS
VL: EIVMTQSPATLSVSPGERATLSCRASESVDNDGIRFLHWYQQKPGQAPRLLIYRASTRATGIPARFSGSGSRTEFTLTISSLQSEDFAVYYCQQSNKDPYTFGGGTKVEIK

- IC50, Jurkat/NF-kB/TACI reporter [2]: 4.9 nM
- IC50, TACI/Jurkat/NF-kB reporter [2]: 21.9 nM
- IC50, Jurkat/NF-kB/TACI reporter [3]: > 100 nM
- IC50, TACI/Jurkat/NF-kB reporter [3]: > 200 nM
B5: Anti-APRIL mAb based on the published BION-1301 sequence (antibody, INN chains, looked up, V domains shown)
VH: B4 VH
VL: B4 VL
